Data from patent publication US7070771.

Molecular target: CD40 (human, on CLL B cells and CD40-positive tumor cell lines) (human) (UniProt P25942)
Experiment: cell-based or functional assay

UniProt P25942, sequence (P25942 21-277): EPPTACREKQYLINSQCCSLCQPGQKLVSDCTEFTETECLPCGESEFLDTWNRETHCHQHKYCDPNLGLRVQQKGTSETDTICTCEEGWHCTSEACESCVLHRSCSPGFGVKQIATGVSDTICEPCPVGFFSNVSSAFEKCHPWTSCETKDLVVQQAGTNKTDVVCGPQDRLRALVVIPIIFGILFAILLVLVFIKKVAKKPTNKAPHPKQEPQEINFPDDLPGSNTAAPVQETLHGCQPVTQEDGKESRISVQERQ

% positive cells, Human CD80 (CLL cells): 26.7%
Substance: G28-5 (an anti-CD40 monoclonal antibody)
